Test results: patent US20240269176A1 (Hoffmann-La Roche, published 2024)
Like-named read-outs stand apart in the source and are kept apart here.

What was measured:
[1] = biological target: VH2VL1-CD8ATD-CD137CSD-CD3zSSD fusion; test: cell-based or functional assay
[2] = biological target: VH3VL1-CD8ATD-CD137CSD-CD3zSSD fusion; test: cell-based or functional assay
[3] = biological target: VH1VL1-CD8ATD-CD137CSD-CD3zSSD fusion; test: cell-based or functional assay
[4] = biological target: VL1VH3-CD8ATD-CD137CSD-CD3zSSD fusion; test: cell-based or functional assay
[5] = biological target: VH3VL1-CD8ATD-CD137CSD-CD3zSSD fusion; test: cell-based or functional assay; remark: listed apart in the source
[6] = biological target: VH1VL1-CD8ATD-CD137CSD-CD3zSSD fusion; test: cell-based or functional assay; remark: listed apart in the source
[7] = biological target: VL1VH3-CD8ATD-CD137CSD-CD3zSSD fusion; test: cell-based or functional assay; remark: listed apart in the source
[8] = biological target: T1, VH2VL1-CD8ATD-CD137CSD-CD3zSSD fusion; test: NFAT-luciferase reporter assay, anti-P329G CAR Jurkat cells with WSUDLCL2 (CD20+) target cells
T1 construct: Chimeric antigen receptor on Jurkat NFAT reporter T cells; also called VH2VL1 P329G-CAR

[9] = biological target: T2, VH3VL1-CD8ATD-CD137CSD-CD3zSSD fusion; test: as above
T2 construct: Chimeric antigen receptor with humanized anti-P329G scFv (VH-linker-VL), expressed on Jurkat NFAT reporter T cells; expression construct carried a T2A-GFP reporter

[10] = biological target: T3, VH1VL1-CD8ATD-CD137CSD-CD3zSSD fusion; test: as above
T3 construct: Chimeric antigen receptor on Jurkat NFAT reporter T cells; also called VH1VL1 P329G-CAR

[11] = biological target: T4, VL1VH3-CD8ATD-CD137CSD-CD3zSSD fusion; test: as above
T4 construct: Chimeric antigen receptor with scFv in VL-linker-VH orientation on Jurkat NFAT reporter T cells; the entry may be incomplete

[12] = biological target: murinPG-Fab-CAR; test: cell-based or functional assay
[13] = biological target: T3, VH1VL1-CD8ATD-CD137CSD-CD3zSSD fusion; test: cell-based or functional assay; remark: listed apart in the source
[14] = biological target: T4, VL1VH3-CD8ATD-CD137CSD-CD3zSSD fusion; test: cell-based or functional assay; remark: listed apart in the source
[15] = biological target: T1, VH2VL1-CD8ATD-CD137CSD-CD3zSSD fusion; test: NFAT-luciferase reporter assay, anti-P329G CAR Jurkat cells with WSUDLCL2 (CD20+) target cells; remark: listed apart in the source
[16] = biological target: T2, VH3VL1-CD8ATD-CD137CSD-CD3zSSD fusion; test: as above; remark: listed apart in the source
[17] = biological target: T3, VH1VL1-CD8ATD-CD137CSD-CD3zSSD fusion; test: as above; remark: listed apart in the source
[18] = biological target: T4, VL1VH3-CD8ATD-CD137CSD-CD3zSSD fusion; test: as above; remark: listed apart in the source

T2 sequence (chain, as listed by the source): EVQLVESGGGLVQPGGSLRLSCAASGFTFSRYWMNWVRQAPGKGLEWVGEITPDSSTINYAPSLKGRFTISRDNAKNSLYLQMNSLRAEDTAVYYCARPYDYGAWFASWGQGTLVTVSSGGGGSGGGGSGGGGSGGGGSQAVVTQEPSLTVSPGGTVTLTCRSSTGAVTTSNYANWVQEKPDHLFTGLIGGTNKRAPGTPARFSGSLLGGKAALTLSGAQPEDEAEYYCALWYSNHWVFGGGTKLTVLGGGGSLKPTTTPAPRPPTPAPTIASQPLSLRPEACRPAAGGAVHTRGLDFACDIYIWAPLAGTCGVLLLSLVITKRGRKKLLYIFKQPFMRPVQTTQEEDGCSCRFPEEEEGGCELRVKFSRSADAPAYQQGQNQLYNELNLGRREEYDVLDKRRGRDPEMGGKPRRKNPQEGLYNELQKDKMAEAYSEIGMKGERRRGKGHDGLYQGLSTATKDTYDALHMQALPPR
T3 sequence (chain, as listed by the source): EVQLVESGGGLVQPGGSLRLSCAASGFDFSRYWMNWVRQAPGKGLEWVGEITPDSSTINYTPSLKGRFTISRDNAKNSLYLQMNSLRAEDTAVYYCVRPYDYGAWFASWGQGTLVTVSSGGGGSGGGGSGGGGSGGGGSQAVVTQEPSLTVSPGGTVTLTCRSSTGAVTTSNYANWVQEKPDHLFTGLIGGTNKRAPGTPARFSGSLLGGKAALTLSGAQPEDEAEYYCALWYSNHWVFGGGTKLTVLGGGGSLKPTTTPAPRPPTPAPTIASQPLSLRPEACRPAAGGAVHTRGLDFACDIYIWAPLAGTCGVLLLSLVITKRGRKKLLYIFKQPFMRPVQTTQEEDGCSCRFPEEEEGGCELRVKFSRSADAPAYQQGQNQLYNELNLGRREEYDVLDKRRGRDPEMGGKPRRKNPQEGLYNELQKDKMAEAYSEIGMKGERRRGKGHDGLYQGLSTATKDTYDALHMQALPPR
T1 sequence (chain, as listed by the source): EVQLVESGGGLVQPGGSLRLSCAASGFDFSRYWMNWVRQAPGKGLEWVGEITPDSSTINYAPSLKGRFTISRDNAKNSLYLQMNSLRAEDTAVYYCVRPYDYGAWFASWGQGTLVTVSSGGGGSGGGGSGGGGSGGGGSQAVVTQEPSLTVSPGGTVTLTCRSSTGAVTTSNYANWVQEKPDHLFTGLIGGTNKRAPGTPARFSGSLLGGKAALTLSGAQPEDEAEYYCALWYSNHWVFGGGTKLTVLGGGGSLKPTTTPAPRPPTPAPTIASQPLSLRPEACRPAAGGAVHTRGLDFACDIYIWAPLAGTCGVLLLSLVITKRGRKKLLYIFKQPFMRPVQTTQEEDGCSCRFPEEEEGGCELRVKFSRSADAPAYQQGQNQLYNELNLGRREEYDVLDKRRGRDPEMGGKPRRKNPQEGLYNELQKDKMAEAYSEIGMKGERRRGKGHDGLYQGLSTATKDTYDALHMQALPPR
T4 sequence (chain, as listed by the source): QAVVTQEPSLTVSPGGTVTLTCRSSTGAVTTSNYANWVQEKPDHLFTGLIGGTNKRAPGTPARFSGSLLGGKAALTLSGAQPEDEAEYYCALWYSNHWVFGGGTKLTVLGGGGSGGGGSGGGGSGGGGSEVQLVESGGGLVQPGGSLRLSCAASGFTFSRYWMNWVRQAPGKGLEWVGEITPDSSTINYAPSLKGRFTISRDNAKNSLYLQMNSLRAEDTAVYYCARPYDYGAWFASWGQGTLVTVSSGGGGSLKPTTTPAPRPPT

B1: anti-CD20 (GA101) P329G LALA IgG1 (antibody)
heavy: not shown
light: DIVMTQTPLSLPVTPGEPASISCRSSKSLLHSNGITYLYWYLQKPGQSPQLLIYQMSNLVSGVPDRFSGSGSGTDFTLKISRVEAEDVGVYYCAQNLELPYTFGGGTKVEIKRTVAAPSVFIFPPSDEQLKSGTASVVCLLNNFYPREAKVQWKVDNALQSGNSQESVTEQDSKDSTYSLSSTLTLSKADYEKHKVYACEVTHQGLSSPVTKSFNRGEC
Question: How did the “EC50 of NFAT-luciferase activation of anti-P329G CAR Jurkat cells, WSUDLCL2 target cells (5:1); table row VH2 x VL1” value [1] turn out when B1 was run?
Answer: ~6.93 pM

Question: What about the “EC50 of NFAT-luciferase activation of anti-P329G CAR Jurkat cells, WSUDLCL2 target cells (5:1); VH3 x VL1” value [2] of the same binder?
Answer: 7.57 pM

Question: And the “EC50 of NFAT-luciferase activation of anti-P329G CAR Jurkat cells, WSUDLCL2 target cells (5:1); VH1 x VL1” value [3]?
Answer: 8.1 pM

Question: What about the “EC50 of NFAT-luciferase activation of anti-P329G CAR Jurkat cells, WSUDLCL2 target cells (5:1); VL1 x VH 3” value [4] of the same binder?
Answer: ~6.58 pM

B2: anti-CD20 (GA101) wild type IgG1 (antibody)
heavy: not shown
light: DIVMTQTPLSLPVTPGEPASISCRSSKSLLHSNGITYLYWYLQKPGQSPQLLIYQMSNLVSGVPDRFSGSGSGTDFTLKISRVEAEDVGVYYCAQNLELPYTFGGGTKVEIKRTVAAPSVFIFPPSDEQLKSGTASVVCLLNNFYPREAKVQWKVDNALQSGNSQESVTEQDSKDSTYSLSSTLTLSKADYEKHKVYACEVTHQGLSSPVTKSFNRGEC
notes: also called WT GA101
Question: For B2, which “EC50 of NFAT-luciferase activation of anti-P329G CAR Jurkat cells, WSUDLCL2 target cells (5:1); curve flat at 50-150 RLU/s, fit without meaning; VH3 x VL1” value [5] is on record?
Answer: ~85 pM

Question: And the “EC50 of NFAT-luciferase activation of anti-P329G CAR Jurkat cells, WSUDLCL2 target cells (5:1); curve flat at 50-150 RLU/s, fit without meaning; VH1 x VL1” value [6]?
Answer: ~2.19 pM

Question: And the “EC50 of NFAT-luciferase activation of anti-P329G CAR Jurkat cells, WSUDLCL2 target cells (5:1); curve flat at 50-150 RLU/s, fit without meaning; VL1 x VH 3” value [7]?
Answer: ~78.3 pM

Question: Does B2 bind [8]?
Answer: no binding (tested: just below 10^2 nM (67 nM per paragraph 404))

Question: Does B2 bind [9]?
Answer: no binding (tested: just below 10^2 nM (67 nM per paragraph 404))

Question: Does B2 bind [10]?
Answer: no binding (tested: just below 10^2 nM (67 nM per paragraph 404))

Question: Does B2 bind [11]?
Answer: no binding (tested: just below 10^2 nM (67 nM per paragraph 404))

B3: anti-CD20 (GA101) heterodimeric IgG1 (antibody)
heavy 1: QVQLVQSGAEVKKPGSSVKVSCKASGYAFSYSWINWVRQAPGQGLEWMGRIFPGDGDTDYNGKFKGRVTITADKSTSTAYMELSSLRSEDTAVYYCARNVFDGYWLVYWGQGTLVTVSSASTKGPSVFPLAPSSKSTSGGTAALGCLVKDYFPEPVTVSWNSGALTSGVHTFPAVLQSSGLYSLSSVVTVPSSSLGTQTYICNVNHKPSNTKVDKKVEPKSCDKTHTCPPCPAPELLGGPSVFLFPPKPKDTLMISRTPEVTCVVVDVSHEDPEVKFNWYVDGVEVHNAKTKPREEQYNSTYRVVSVLTVLHQDWLNGKEYKCKVSNKALGAPIEKTISKAKGQPREPQVYTLPPCRDELTKNQVSLWCLVKGFYPSDIAVEWESNGQPENNYKTTPPVLDSDGSFFLYSKLTVDKSRWQQGNVFSCSVMHEALHNHYTQKSLSLSP
heavy 2: QVQLVQSGAEVKKPGSSVKVSCKASGYAFSYSWINWVRQAPGQGLEWMGRIFPGDGDTDYNGKFKGRVTITADKSTSTAYMELSSLRSEDTAVYYCARNVFDGYWLVYWGQGTLVTVSSASTKGPSVFPLAPSSKSTSGGTAALGCLVKDYFPEPVTVSWNSGALTSGVHTFPAVLQSSGLYSLSSVVTVPSSSLGTQTYICNVNHKPSNTKVDKKVEPKSCDKTHTCPPCPAPELLGGPSVFLFPPKPKDTLMISRTPEVTCVVVDVSHEDPEVKFNWYVDGVEVHNAKTKPREEQYNSTYRVVSVLTVLHQDWLNGKEYKCKVSNKALPAPIEKTISKAKGQPREPQVCTLPPSRDEL
light: DIVMTQTPLSLPVTPGEPASISCRSSKSLLHSNGITYLYWYLQKPGQSPQLLIYQMSNLVSGVPDRFSGSGSGTDFTLKISRVEAEDVGVYYCAQNLELPYTFGGGTKVEIKRTVAAPSVFIFPPSDEQLKSGTASVVCLLNNFYPREAKVQWKVDNALQSGNSQESVTEQDSKDSTYSLSSTLTLSKADYEKHKVYACEVTHQGLSSPVTKSFNRGEC
modifications: defucosylated
Question: For B3, which “EC50 (read off the curve); NFAT-luciferase, anti-P329G CAR Jurkat reporter cells (panel title murinPG-Fab-CAR activation) with WSUDLCL2 CD20+ target cells” value [12] is on record?
Answer: ~20 pM

B4: anti-CD20 (GA101) LALA IgG1 (antibody)
heavy: not shown
light: DIVMTQTPLSLPVTPGEPASISCRSSKSLLHSNGITYLYWYLQKPGQSPQLLIYQMSNLVSGVPDRFSGSGSGTDFTLKISRVEAEDVGVYYCAQNLELPYTFGGGTKVEIKRTVAAPSVFIFPPSDEQLKSGTASVVCLLNNFYPREAKVQWKVDNALQSGNSQESVTEQDSKDSTYSLSSTLTLSKADYEKHKVYACEVTHQGLSSPVTKSFNRGEC
Question: How did the “EC50 of NFAT-luciferase activation of anti-P329G CAR Jurkat cells, WSUDLCL2 target cells (5:1); curve flat at 60-150 RLU/s, fit without meaning; VH1 x VL1” value [13] turn out when B4 was run?
Answer: ~0.0485 pM

Question: And the “EC50 of NFAT-luciferase activation of anti-P329G CAR Jurkat cells, WSUDLCL2 target cells (5:1); curve flat at 60-150 RLU/s, fit without meaning; VL1 x VH 3” value [14]?
Answer: ~0.000234 pM

Question: Does B4 bind [15]?
Answer: no binding (tested: just below 10^2 nM (67 nM per paragraph 404))

Question: Does B4 bind [16]?
Answer: no binding (tested: just below 10^2 nM (67 nM per paragraph 404))

Question: Does B4 bind [17]?
Answer: no binding (tested: just below 10^2 nM (67 nM per paragraph 404))

Question: Does B4 bind [18]?
Answer: no binding (tested: just below 10^2 nM (67 nM per paragraph 404))
